# Measurements: patent publication US20170342161A1 (APROGEN KIC, published 2017)
# B1: 4B4 monoclonal antibody (antibody, V domains shown)
# VH: EIQLQQSGPELVKPGASVKISCKASGYSYTDYNIYWVRQSQGKSLDWIGYIDPANGDTTYNQKFKGKATLTVDKSSSTAFMHLNSLTSDGSAVYFCARPIYYGVYWYFDVWGAGTTVTVS
# VL: DIVMTQAAPSVPVTPGESVSISCRSSKSLLHSNGNTYLYWFLQRPGQSPQLLIYRMSNLASGVPDRFSGSGSGTAFTLRISRVEAEDVGVYYCMQHLEYPFTFGSGTKLEIK
# notes: Mouse hybridoma antibody; also called 4B4 Ab; mouse 4B4 antibody
# B2: 27B6 monoclonal antibody (antibody, mouse IgG1, V domains shown)
# VH: QVQLQQSGPQLVWPGASVKISCNTSGYSFTNYWIHWVKQRPGQGLEWIGMIDPSDSETRLNQKFKDKTTLTVDRSSSTAYMQVSSSTSEDSAVYYCTRGIRGGYYAMDYWGQGTSVTVSS
# VL: DIQMTQTTSSLSASLGDRVTISCRASQDISNYLNWYQQKPEGTVKLLIYYTSRLHSGVPSRFSGSGSGTDYSLTISNLEQEDIATYFCQQGDTLPRTFGEGTKLEIR
# notes: also called 27B6 Ab; mouse 27B6 antibody
# B3: 27B6 chimeric antibody (antibody, V domains shown)
# VH: B2 VH
# VL: B2 VL
# notes: Chimeric antibody: mouse 27B6 variable regions, the rest 'substituted with the Fc of the human antibody'; Produced in CHO DG44 cells; also called chimeric 27B6; 27B6-HuIgFc
# B4: 4B4 chimeric antibody (antibody, V domains shown)
# VH: B1 VH
# VL: B1 VL
# notes: Chimeric antibody: mouse 4B4 variable regions, the rest 'substituted with the Fc of the human antibody'; Produced in CHO DG44 cells; also called chimeric 4B4; 4B4-HuIgFc
# Experiments:
# [1] = target: T1, carbonic anhydrase 12 (CA-XII) as expressed by human tumor cell lines (human, UniProt O43570 25-354); experiment: flow cytometry, percent positive cells, NCI-H460 (lung)
# T1 construct: also called CA12; CA12 antigen
# Method: (§1) 27B6 and 4B4 monoclonal antibodies were analyzed for binding to various cell lines obtained from KCLB (Korean Cell Line Bank) and SNU (Seoul National University) using flow cytometry. Briefly, various cell lines were obtained from KCLB (Korean Cell Line Bank) and SNU (Seoul National University). At 37° C. under a 5% CO₂ atmosphere, L-132, SW-900, DU145, LNCap, MCF-7, Huh7, and Hs-578T were cultured in Dulbecco's MEM (GIBCO, Invitrogen) supplemented with 10% heat-inactivated fetal bovine serum (FBS; GIBCO, Invitrogen) and A549, NCI-H460, NCI-H417, DLD-1, HCT116, HT-29, SW-480, SW-620, LS174T, PC-3, SNU1, SNU638, SNU719, MKN1, MKN28, MKN45, MKN74, NCI-N87, SK-BR3, MDA-MB231, and MDA-MB453 were cultured in RPMI 1640 (GIBCO, Invitrogen) supplemented with 10% heat-inactivated FBS. […]
# (§2) The cultured cancer cell lines were incubated with the 27B6 or the 4B4 monoclonal antibody of the present disclosure at 4° C. for 30 min, washed with PBS, and treated with FITC-conjugated goat anti-mouse IgG (DiNona Inc, Korea) at 4° C. for 15 min. […] Also, titers of the 27B6 and the 4B4 antibody were measured in various solid tumor cell lines.
# [2] = target: T1, carbonic anhydrase 12 (CA-XII) as …; experiment: flow cytometry, percent positive cells, HCT116 (colon)
# Method: as §1, §2
# [3] = target: T1, carbonic anhydrase 12 (CA-XII) as …; experiment: flow cytometry (A549 cells, per paragraph 117)
# Method: (§3) Three days post transfection, the supernatant was taken and added to A549 cells which were then incubated at 4° C. for 30 min. Unbound antibodies were removed by centrifugation, together with 3 ml of PBS, at 1500 rpm for 3 min. The bound antibodies were detected by incubation with a 150-fold dilution of the secondary antibody goat anti-Mouse Ig-FITC (Dinona) at 4° C. for 15 min, followed by washing with 3 ml of PBS in the same manner. Thereafter, the antibody titer to A549 cells was measured using flow cytometry. Subsequently, a stable cell line was established. For this, the medium was exchanged with a PowerCHO medium (LONZA, Switzerland) supplemented with 30 nM MTX (Sigma, USA) and 200 μg/ml G418 (Invitrogen, USA), after which clone selection was started. Concentrations of MTX and G418 in the selection medium were increased with the repetition of clone selection rounds. Each round was set to be three weeks. The final round of clone selection was performed in a PowerCHO medium supplemented with 1000 nM MTX and 400 μg/ml G418. Thereafter, the final cell line was established as a single colony through limiting dilution.
# [4] = target: T1, carbonic anhydrase 12 (CA-XII) as …; experiment: flow cytometry (A549 cells, per paragraph 138)
# Method: as §3, with “to A549 cells, which were” for “to A549 cells which were”, “was measured by flow cytometry.” for “was measured using flow cytometry.”, “1000 nM of MTX and” for “1000 nM MTX and”, “400 μg/ml of G418. Thereafter,” for “400 μg/ml G418. Thereafter,”
# T1 sequence (O43570 25-354 limits assumed): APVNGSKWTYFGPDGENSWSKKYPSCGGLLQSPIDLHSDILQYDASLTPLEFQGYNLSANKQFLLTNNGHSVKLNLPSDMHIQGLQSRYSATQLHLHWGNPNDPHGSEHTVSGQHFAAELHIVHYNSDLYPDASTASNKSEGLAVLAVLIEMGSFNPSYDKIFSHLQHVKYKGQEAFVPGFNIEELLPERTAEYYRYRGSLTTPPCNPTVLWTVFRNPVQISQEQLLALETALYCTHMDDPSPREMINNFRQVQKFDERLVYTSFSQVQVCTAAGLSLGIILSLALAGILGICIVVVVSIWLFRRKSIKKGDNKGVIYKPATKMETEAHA
binder,measurement,setting,value
B1,binding result,[1],binds
B2,binding result,[2],binds
B3,binding result,[3],binds
B4,binding result,[4],binds
